Measured values: patent US6706266, “Oncostatin M antagonists” (SmithKline Beecham Corporation)

Key:
[1] = biological target: T1, oncostatin M (murine OSM) (Mus musculus, UniProt P53347 P53347:23-206); test: filter; no binding at any concentration tested; conditions: tags: R&D Systems
T1 sequence: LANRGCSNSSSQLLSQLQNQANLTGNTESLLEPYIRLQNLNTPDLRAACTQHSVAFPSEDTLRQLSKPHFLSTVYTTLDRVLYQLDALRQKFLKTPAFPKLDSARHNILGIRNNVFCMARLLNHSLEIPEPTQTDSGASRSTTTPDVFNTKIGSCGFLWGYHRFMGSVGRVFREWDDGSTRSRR

[2] = biological target: T2, oncostatin M (hOSM, mature) (Homo sapiens, UniProt P13725 SEQ:26-221); test: filter; SCHMK buffer (1 mM MgCl2, 1 mM CaCl2), 37 C; conditions: tags: expressed in E. coli as GST fusion, GST removed by thrombin cleavage
T2 sequence: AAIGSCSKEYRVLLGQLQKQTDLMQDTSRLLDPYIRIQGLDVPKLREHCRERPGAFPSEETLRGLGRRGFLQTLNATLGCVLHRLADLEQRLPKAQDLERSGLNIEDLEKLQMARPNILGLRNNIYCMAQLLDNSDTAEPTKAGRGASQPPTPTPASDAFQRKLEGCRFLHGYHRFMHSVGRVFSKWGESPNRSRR
Protocol: Binding assays were carried out as described (Fitzwater and Polisky supra). […] Transcribed RNA was dephosphorylated using bacterial alkaline phosphatase for 30 min at 65° C. Dephosphorylated RNA was then 5' labelled using polynucleotide kinase and γ-^33P ATP. Radiolabelled RNA was gel purified, and incubated at 37° C. for 30 min with a serial dilution of hOSM in SCHMK buffer (45 μl OSM plus 5 μl radiolabelled RNA at 1000 cpm/μl). […] The filters were washed immediately with 5 ml SCHMK buffer, dried and counted in a liquid scintillation counter. […] The data sets were fitted by the non-linear least squares method using an EXEL software package.

[3] = biological target: T2, oncostatin M (hOSM, mature); test: competition; blocks OSM binding to gp130-Fc, ELISA; conditions: tags: expressed in E. coli as GST fusion, GST removed by thrombin cleavage
Protocol: Effect of Point Mutations on the Ability of OSM-GST to Compete with Wild Type OSM Binding to gp130-Fc in an ELISA Nunc Immunoplates (F6 Maxisorp, Life Technologies) were coated overnight (4° C.) with wild type OSM (produced according to Example 7a); 50 µl/well, 1 µg/ml in carbonate/bicarbonate buffer pH 9.4). Plates were washed (×6 in PBS 0.05% tween 20, using Skatron Plate washer), tapped dry and blocked to reduce non-specific binding (200 µl/well, 1% BSA/PBS). Following 1 h incubation (room temperature on a shaking platform) the plates were tapped dry and wild type (wt) or mutant OSM-GST from Example 9b added (50 µl/well, 20–0.002 µg/ml, titrated in 1%BSA/PBS). As a positive control polyclonal anti-human OSM antibody (R&D Systems) was also tested (20–0.02 µg/ml). […] Following a 5 h incubation (room temperature on a shaking platform) the plates were washed (×6) and developed using ELISA Amplification System (Life Technologies) as manufacturer's instructions and the OD measured at 490 nm. On each plate the total binding was determined by gp130-Fc/conjugate and OSM in the presence of 1%BSA/PBS, and non-specific binding by gp130-Fc/conjugate in absence of OSM, or conjugate binding to OSM in absence of gp130-Fc. […]

[4] = biological target: TNF alpha (biotinylated) (UniProt P01375 P01375:77-233); test: competition; no inhibition of TNFalpha binding to TNFR1; conditions: tags: biotin, NEN; chain copies: 3
Sequence of TNF alpha (biotinylated) (P01375 77-233, one chain of several): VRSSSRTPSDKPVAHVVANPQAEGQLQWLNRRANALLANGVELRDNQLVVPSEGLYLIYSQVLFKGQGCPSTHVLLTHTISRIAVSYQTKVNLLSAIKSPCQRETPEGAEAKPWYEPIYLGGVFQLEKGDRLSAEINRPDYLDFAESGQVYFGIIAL
Protocol: Nunc Immunoplates (F6 Maxisorp, Life Technologies) were coated overnight (4° C.) with sheep anti-human IgG (Serolabs) (50 µl/well, 1 µg/ml in PBS). Plates were washed (×6 in PBS 0.05% tween 20, using Skatron Plate washer), tapped dry and blocked to reduce non-specific binding (200µl/well, 1% BSA/PBS). […] As a positive control an anti-TNFR1 monoclonal antibody (R&D Systems) was included. […] Following a 2 h incubation (room temperature on a shaking platform) the plates were washed (×6) and developed using ELISA Amplification System (Life Technologies) according to the manufacturer's instructions and the OD measured at 490 nm.

B1: ADR58 (ssRNA)
RNA: GGGAGGACGAUGCGGAUCGCCCUGAACCGGCCCAGCAGACUGCUGACGGCACGAUCAGACGACUCGCCCGA
modifications: 2'-F C and U (2'-F pyrimidines), 2'-OH purines
In the case of B1, the binding result [1] is reported as “no binding”, the Kd [2] is reported as 7 nM and the IC50 [3] is reported as roughly 30 pmol/well. B1: no binding [4].
